Assay results as given in patent publication US20190127480A1 (Regeneron, published 2019).

B1: H2M2689N (antibody, V domains shown)
VH: QVQLVESGGGVVQPGRSLRLSCAASGFTFSRKGMHWVRQAPVKGLEWVAVISYDGSNKYYADSVKGRFTISRDNSKNTLYLQMNSLTAEDTAVYYCAKEGGHDYGGTFDYWGQGTLVTVSS
VL: not shown
notes: Hybridoma antibody, human variable regions, mouse IgG2 Fc
B2: H2M2689N (antibody, mouse IgG2, V domains shown)
VH: QVQLVESGGGVVQPGRSLRLSCAASGFTFSRKGMHWVRQAPVKGLEWVAVISYDGSNKYYADSVKGRFTISRDNSKNTLYLQMNSLTAEDTAVYYCAKEGGHDYGGTFDYWGQGTLVTVSS
VL: not shown
notes: H2M: mouse IgG2 Fc, human variable regions; divalent
B3: H1M3544N (antibody, mouse IgG1, V domains shown)
VH: EVQLVESGGGLVQPGRSLRLSCAASGFTFDDYTMHWVRQVPGKGLEWVSGISWNSGSLAYADSVKGRFTISRDNAKNSLYLQMNSLHPEDTALYYCVKDGSGYGHYSYYGLDVWGQGTTVTVSS
VL: not shown
notes: H1M: mouse IgG1 Fc, human variable regions; divalent
B4: H2M2690N (antibody, V domains shown)
VH: EVQLVESGGGLVQPGRSLRLSCAASGFTFDDYTMHWVRQAPGKGLEWVSGISWNSGSIGYADSVKGRFTISRDNAKKSLYLQMNSLRAEDTALYYCAKDNSGYGHYYYGMDVWGQGTTVTVAS
VL: EIVMTQSPATLSVSPGERATLSCRASQSVSSNLAWYQQKPGQAPRLLIYGASTRATGIPARFSGSGSGTEFTLTISSLQSEDFAVYYCQHYINWPLTFGGGTKVEIK
notes: as for B1
B5: H2M2707N (antibody, V domains shown)
VH: QVQLVESGGGVVQPGRSLRLSCIASGFTFRSYGMHWVRQAPGKGLEWVAMIYYDGNNKYYADSVRGRFTISRDNSKNTLYLQMNSLRADDTAVYFCARGPGYNWLDPWGQGTLVTVSS
VL: EIVMTQSPATLSVSPGERATLSCRASQSVSSNLAWYQQKPGQAPRLLIYGASTRATGIPARFSGSGSGTEFTLTISSLQSEDFAVYYCQQYNNRPLTFGGGTKVEIK
notes: as for B1
B6: H1M2712N (antibody, V domains shown)
VH: EVQLVESGGGLVQPGGSLRLSCAATGFTFDDFTMHWVRQAPGKGLEWVSGISWNSGSIGYVDSVKGRFTISRDNAKNSLYLQMNSLRAEDTALYYCAKDNSGYGYYYYGMDVWGQGTTVTVSS
VL: EIVMTQSPATLSVSPGERATLSCRASHSVSRNSAWYQQKPGQAPRLLIYGASTRATGIPARFSGSGSGTEFTLTISSLQSEDFAIYYCQQYNNWPLTFGGGTKVEIK
notes: Mouse IgG1 Fc form
B7: H2M2708N (antibody, V domains shown)
VH: QVQLVESGGGVVQPGRSLRLSCAASGFTFRSFGMHWVRQAPGRGLEWVAMIYFDGKNKYYADSVRGRFTISRDNSKNTLYLEMSSLRAEDTAVYFCARGPGYNWLDPWGQGTLVTVSS
VL: EIVMTQSPATLSVSPGERVTLSCRASQSISRNLAWYQQKPGQAPRLLIYGASTRATGVPARFSGSGSGTEFTLTISSLQSEDFAVFHCQQYNNRPLTFGGGTEVEIK
notes: as for B1
B8: H2M2779N (antibody, V domains shown)
VH: EVQLVESGGGLVQPGGSLRLSCAATGFTFDDFTMHWVRQAPGKGLEWVSGISWNSGSIGYVDSVKGRFTISRDNAKNSLYLQMNSLRAEDTALYYCAKDNSGYGYYYYGMDVWGQGTTVTVSS
VL: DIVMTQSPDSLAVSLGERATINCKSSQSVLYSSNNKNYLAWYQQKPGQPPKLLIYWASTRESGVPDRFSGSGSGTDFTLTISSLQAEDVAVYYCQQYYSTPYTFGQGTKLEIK
notes: as for B2
B9: H2M2691N (antibody, V domains shown)
VH: EVQLVESGGGLVQPGRSLRLSCAASGFTFDDYTMHWVRQAPGKGLEWVSGISWNSGSIGYADSVKGRFTISRDNAKKSLYLQMNSLRAEDTALYYCAKDNSGYGHYYYGMDVWGQGTTVTVAS
VL: EIVMTQSPATLSVSPGERATLSCRASQSVSSNLAWYQQKPGQAPRLLIYGASTRATGIPARFSGSGSGTEFTLTISSLQSEDFAVYYCQHYINWPLTFGGGTKVEIK
notes: as for B1
B10: H2M2777N (antibody, V domains shown)
VH: QVQLVESGGGVVQPGRSLRLSCIASGFTFRSYGMHWVRQAPGKGLEWVAMIYYDGNNKYYADSVRGRFTISRDNSKNTLYLQMNSLRADDTAVYFCARGPGYNWLDPWGQGTLVTVSS
VL: EIVMTQSPATLSVSPGERATLSCRASQSVSSNLAWYQQKPGQAPRLLIYGASTRATGIPARFSGSGSGTEFTLTISSLQSEDFAVYYCQQYNNRPLTFGGGTKVEIK
notes: as for B1
B11: H1M2692N (antibody, V domains shown)
VH: EVQLVESGGGLVQPGGSLRLSCAASGFSFDDYTMHWVRQPPGKGLEWVSGISWNSGSIGYADSVKGRFTISRDNAKNSLYLQMNSLRAGDTALYYCAKDNSGYGYYYYYGMDVWGQGTTVTVSS
VL: EIVMTQSPATLSVSPGERATLSCRASQSVSSNLAWYQQKPGQAPRLLIYGASTRATGIPARFSGSGSGTEFTLTISSLQSEDFAVYYCQQYYNWPLTFGGGTKVEIK
notes: Hybridoma antibody, human variable regions, mouse IgG1 Fc
B12: H2M2711N (antibody, V domains shown)
VH: QVQLVESGGGVVQPGRSLRLSCAASGFTFRSFGMHWVRQAPGRGLEWVAMIYFDGKNKYYADSVRGRFTISRDNSKNTLYLEMSSLRAEDTAVYFCARGPGYNWLDPWGQGTLVTVSS
VL: EIVMTQSPATLSVSPGERATLSCRASQSVSRNLAWYQQKPGQAPRLLIYGASTRATGVPARFSGSGSGTEFTLTISSLQSEDFAVFHCQQYNNRPLTFGGGTEVEIK
notes: as for B1
B13: H2M2774N (antibody, V domains shown)
VH: QVQLVESGGGVVQPGRSLRLSCVASGFTFRSYGMHWVRQAPGKGLQWVAMIYYDGKNKYYADSVRGRFTISRDNSKNTLYLQMNSLRAEDTAMYFCARGPGYNWLDPWGQGTLVTVSS
VL: EIVMTQSPATLSVSPGERATLSCRASQRISSNLAWYQQKPGQAPRLLIYGASTRATGSPARFSGSGSGTEFTLTISSLQSEDVAVYYCQQHNNWPLTFGGGTKVEIK
notes: as for B1
B14: H2M2886N (antibody, V domains shown)
VH: QVQLVESGGGVVQPGRSLRLSCAASGFTFRSFGMHWVRQAPGRGLEWVAMIYFDGKNKYYADSVRGRFTISRDNSKNTLYLEMSSLRAEDTAVYFCARGPGYNWLDPWGQGTLVTVSS
VL: EIVMTQSPATLSVSPGERVILSCRASQSISRNLAWYQQKPGQAPRLLIYGATTRATGVPARFSGSGSGTEFTLTISSLQSEDFAVFYCQQYNNRPLTFGGGTEVEIK
notes: as for B1
B15: H2M2706N (antibody, V domains shown)
VH: QVQLVESGGGVVQPGRSLRLSCAASGFTFRSYAMHWVRQAPGKGLEWVAMVYYDGNNQYYADSVRGRFTISRDNSKNTLYLQMNSLRADDTAVYFCARGPGYNWLDPWGQGTLVTVSS
VL: EIVMTQSPATLSVSPGERATLSCRASQSVSRNLAWYQQKPGQAPRLLIYGASTRATGIPARFSGSGSGTDFTLTISSLQSEDFAVYYCQQYNNWPLTFGGGTKVVIK
notes: as for B1
B16: H2M2885N (antibody, V domains shown)
VH: QVQLVESGGGVVQPGRSLRLSCAASGFTFRSFGMHWVRQAPGRGLEWVAMIYFDGKNKYYADSVRGRFTISRDNSKNTLYLEMSSLRAEDTAVYFCARGPGYNWLDPWGQGTLVTVSS
VL: EIVMTQSPATLSVSPGERVILSCRASQSISRNLAWYQQKPGQAPRLLIYGATTRATGVPARFSGSGSGTEFTLTISSLQSEDFAVFYCQQYNNRPLTFGGGTEVEIK
notes: as for B1
B17: H2M2775N (antibody, V domains shown)
VH: QVQLVESGGGVVQPGRSLRLSCAASGFTFRSFGMHWVRQAPGRGLEWVAMIYFDGKNKYYADSVRGRFTISRDNSKNTLYLEMSSLRAEDTAVYFCARGPGYNWLDPWGQGTLVTVSS
VL: EIVMTQSPATLSVSPGERVILSCRASQSISRNLAWYQQKPGQAPRLLIYGATTRATGVPARFSGSGSGTEFTLTISSLQSEDFAVFYCQQYNNRPLTFGGGTEVEIK
notes: as for B1
B18: H2M2710N (antibody, V domains shown)
VH: QVQLVESGGGVVQPGRSLRLSCAASGFTFRSFGMHWVRQAPGRGLEWVAMIYFDGKNKYYADSVRGRFTISRDNSKNTLYLEMSSLRAEDTAVYFCARGPGYNWLDPWGQGTLVTVSS
VL: EIVMTQSPATLSVSPGERATLSCRASQSVSRNLAWYQQKPGQAPRLLIYGASTRATGVPARFSGSGSGTEFTLTISSLQSEDFAVFHCQQYNNRPLTFGGGTEVEIK
notes: as for B1

Legend:
[1] = target: T1, Soluble heterodimeric CD3 protein (hCD3-epsilon/hCD3-delta) with a human Fc tag (hFcΔAdp/hFc) or a mouse Fc … (human, UniProt P07766 23-126; P04234 22-105); test: SPR Biacore, 25 C, antibody-capture format
T1 construct: also called hCD3ε/δ; not shown: Fc tag: human (hFcΔAdp/hFc); which tag was used in Ta
T1 sequence (P07766 23-126 limits assumed, stated change not applied, chain 1 of 2): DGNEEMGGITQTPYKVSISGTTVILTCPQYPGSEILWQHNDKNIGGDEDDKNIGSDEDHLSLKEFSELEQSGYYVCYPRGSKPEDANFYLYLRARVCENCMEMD
T1 sequence (P04234 22-105 limits assumed, stated change not applied, chain 2 of 2): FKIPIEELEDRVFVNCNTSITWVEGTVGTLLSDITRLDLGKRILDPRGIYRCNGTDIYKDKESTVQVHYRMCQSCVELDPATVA
Procedure: (§1) Measurements were conducted on a T200 Biacore™ instrument.
Soluble heterodimeric CD3 protein (hCD3-epsilon/hCD3-delta; SEQ ID NOs:1652/1653) with either a human Fc tag (hFcΔAdp/hFc; SEQ ID NOs:1683/1684) or a mouse Fc tag (mFcΔAdp/mFc; SEQ ID NOs:1685/1686) was injected over the antibody captured surface and the binding response was recorded. Heterodimeric CD3 protein was purified using the method described in Davis et al. (US2010/0331527).
(§2) Kinetic association (kₐ) and dissociation (kd) rate constants were determined by processing and fitting the data to a 1:1 binding model using Scrubber 2.0 curve fitting software. Binding dissociation equilibrium constants (KD) and dissociative half-lives (t₁₁₂) were calculated from the kinetic rate constants as: KD (M)=kd/kₐ; and t_{1/2} (min)=(ln 2/(60*kd). NT=not tested; NB=no binding observed.

[2] = target: T2, Soluble heterodimeric CD3 protein (hCD3-epsilon/hCD3-delta) with either a human Fc tag (hFcΔAdp/hFc) or a … (human, UniProt P07766 23-126; P04234 22-105); test: SPR Biacore 25C antigen-capture
T2 construct: also called hCD3ε/δ; not shown: Fc tag: human (hFcΔAdp/hFc)
T2 sequence (P07766 23-126 limits assumed, stated change not applied, chain 1 of 2): as the sequence (P07766 23-126 limits assumed, stated change not applied, chain 1 of 2) above
T2 sequence (P04234 22-105 limits assumed, stated change not applied, chain 2 of 2): as the sequence (P04234 22-105 limits assumed, stated change not applied, chain 2 of 2) above
Procedure: as §1
In the antigen-capture format, heterodimeric CD3 protein was captured using a rabbit anti-mouse Fc or mouse anti-human Fc and the respective antibodies were injected over the captured antigen.
as §2

Binder | Kd [1] [nM] | T½ [1] [min] | koff [1] [s⁻¹] | kon [1] [M⁻¹ s⁻¹] | Kd [2] [nM] | T½ [2] [min] | koff [2] [s⁻¹] | kon [2] [M⁻¹ s⁻¹]
B1 | 4.18 | 4 | 0.00323 | 773000 | – | – | – | –
B2 | – | – | – | – | 0.0583 | 116 | 9.97e-05 | 1.71e+06
B3 | – | – | – | – | – | 193 | – | –
B4 | 20.9 | 57 | 0.000202 | 9700 | – | – | – | –
B5 | 63.5 | 6 | 0.00187 | 29500 | – | – | – | –
B6 | 23.5 | 53 | 0.000219 | 9320 | – | – | – | –
B7 | 8.82 | 19 | 0.000612 | 69400 | – | – | – | –
B8 | – | – | – | – | 0.0938 | 941 | 1.23e-05 | 128000
B9 | 20.1 | 56 | 0.000207 | 10300 | – | – | – | –
B10 | 43.9 | 7 | 0.00163 | 37000 | – | – | – | –
B11 | 53.9 | 27 | 0.000434 | 8050 | – | – | – | –
B12 | 11.4 | 15 | 0.000767 | 67200 | – | – | – | –
B13 | 11.8 | 13 | 0.000918 | 77900 | – | – | – | –
B14 | 8.96 | 18 | 0.000653 | 72900 | – | – | – | –
B15 | 135 | 3 | 0.00444 | 32900 | – | – | – | –
B16 | 9.54 | 18 | 0.000651 | 68200 | – | – | – | –
B17 | 8.98 | 18 | 0.000626 | 69700 | – | – | – | –
B18 | 11.2 | 15 | 0.000753 | 67200 | – | – | – | –
